# Experimental data published in patent US20170145069A1 (Novo Nordisk, published 2017).
# Numbering of substitutions follows the chain as printed. *1 amine or outer side, *2 acyl side, *3 side chain or, on linkers, in order; H or OH if unused. Where no end group is shown, it is not given here. Side-chain parts run from the residue outwards. [ ]: non-standard residue; d: D form. The star is where a group is joined. Dodecanoyl(12-OPh(4-COOH)) = O=C(O)c1ccc(OCCCCCCCCCCCC(=O)*)cc1; Undecanoyl(11-OPh(4-COOH)) = O=C(O)c1ccc(OCCCCCCCCCCC(=O)*)cc1; Decanoyl(10-(4-HOOC-PhO)) = O=C(O)c1ccc(OCCCCCCCCCC(=O)*)cc1; γGlu = O=C(O)[C@H](CCC(=O)[*:2])N[*:1]; εLys = N[C@@H](CCCCN[*:1])C(=O)[*:2]; 13‑carboxytridecanoyl = C14 diacid; AEEA = NCCOCCOCC(=O)O; Aib = CC(C)(N)C(=O)O
# B1: GLP-1 derivative of Example 26 (Chem. 45), N^eps26,N^eps37-diacylated [Imp^7,Aib^8,Arg^34,Lys^37]-GLP-1-(7-37)-peptide (peptide)
# peptide: XXEGTFTSDVSSYLEGQAAKEFIAWLVRGRK
# modifications: Imp (imidazopropionyl, des-amino histidine) at 7; Aib at 8; eps-amino of Lys26 and Lys37 each acylated with 12-(4-carboxyphenoxy)dodecanoyl-gGlu-Ser-Ser-Gly-Ser-Ser-Gly
# B2: GLP-1 derivative of Example 24 (Chem. 43), N^eps26,N^eps37-diacylated [Aib^8,Arg^34,Lys^37]-GLP-1-(7-37)-peptide (peptide)
# peptide: B1 peptide with X1H
# modifications: Aib at 8; eps-amino of Lys26 and Lys37 each acylated with 12-(4-carboxyphenoxy)dodecanoyl-gGlu-Ser-Ser-Gly-Ser-Ser-Gly
# B3: GLP-1 derivative of Example 29 (Chem. 48), N^eps26,N^eps37-diacylated [Aib^8,Arg^34,Lys^37]-GLP-1-(7-37)-peptide (peptide)
# peptide: B1 peptide with X1H
# modifications: Aib at 8; eps-amino of Lys26 and Lys37 each acylated with 12-(4-carboxyphenoxy)dodecanoyl-gGlu-Ser-Gly-Ser-eps-Lys
# B4: GLP-1 derivative of Example 2 (Chem. 21), N^eps26,N^eps37-diacylated [Aib^8,His^31,Gln^34,Lys^37]-GLP-1-(7-37)-peptide (peptide)
# peptide: B1 peptide with X1H, W25H, R28Q
# modifications: Aib at 8; eps-amino of Lys26 and Lys37 each acylated with 10-(4-carboxyphenoxy)decanoyl-gGlu-Ser-Ser-Gly-Ser-Ser-Gly
# B5: GLP-1 derivative of Example 31 (Chem. 50), N^eps26,N^eps37-diacylated [Aib^8,Arg^34,Lys^37]-GLP-1-(7-37)-peptide (peptide)
# peptide: B1 peptide with X1H
# modifications: Aib at 8; eps-amino of Lys26 and Lys37 each acylated with 11-(4-carboxyphenoxy)undecanoyl-gGlu-Ser-Ser-Gly-Ser-Ser-Gly
# B6: GLP-1 derivative of Example 12 (Chem. 31), N^eps26,N^eps37-diacylated [Aib^8,His^34,Lys^37]-GLP-1-(7-37)-peptide (peptide)
# peptide: B1 peptide with X1H, R28H
# modifications: Aib at 8; eps-amino of Lys26 and Lys37 each acylated with 13-carboxytridecanoyl-gGlu-Ser-Ser-Gly-Ser-Ser-Gly
# How the values were obtained:
# human GLP-1 receptor [1] = target: T1, human GLP-1 receptor (human, UniProt P43220 24-463); test: cell-based or functional assay
# human GLP-1 receptor [2] = target: T1, human GLP-1 receptor; test: cell-based or functional assay; remark: listed apart in the source
# human GLP-1 receptor [3] = target: T1, human GLP-1 receptor; test: SPA, displacement of 125I-GLP-1(7-36)NH2, BHK membranes, 0.001% HSA
# Method: Test compounds, membranes, SPA-particles and [¹²⁵I] ]-GLP-1(7-36)NH₂ were diluted in assay buffer. 50 ul (micro liter) buffer (“low albumin” experiment containing 0.001% HSA) was added to Optiplate, and 25 ul of test compounds were added. 5-10 μg membrane protein/sample was added (50 μl) corresponding to 0.1-0.2 mg protein/ml (to be preferably optimised for each membrane preparation). SPA-particles (Wheatgerm agglutinin SPA beads, Perkin Elmer, #RPNQ0001) were added in an amount of 0.5 mg/well (50 μl). The incubation was started with [¹²⁵I]-GLP-1]-(7-36)NH₂ (final concentration 0.06 nM corresponding to 49.880 DPM, 25 μl). The plates were sealed with PlateSealer and incubated for 120 minutes at 30° C. while shaking. The plates were centrifuged (1500 rpm, 10 min) and counted in Topcounter.
# The IC₅₀ value was read from the curve as the concentration which displaces 50% of ¹²⁵I-GLP-1 from the receptor.
binder,measurement,setting,value
"HAEGTFTSDVSSYLEGQAAK([AEEA-AEEA-γGlu-Decanoyl(10-(4-HOOC-PhO))])EFIAHLVQGRK([AEEA-AEEA-γGlu-Decanoyl(10-(4-HOOC-PhO))]) [Comparative compound of Example 3a: Compound of Example 33, Chem. 52, in WO 2011/080103]",In vitro potency (AlphaScreen cAMP; membranes) EC50,human GLP-1 receptor [1],0.506 nM
same,In vitro potency (CRE-luciferase) low albumin EC50,human GLP-1 receptor [2],0.124 nM
same,IC50,human GLP-1 receptor [3],51.5 nM
"H[Aib]EGTFTSDVSK([AEEA-AEEA-γGlu-13‑carboxytridecanoyl])YLEGQAAK([AEEA-AEEA-γGlu-13‑carboxytridecanoyl])EFIAWLVQGRG [Comparative compound of Example 22a: Compound of Example 141, Chem. 189, in WO 2012/062803]",In vitro potency (AlphaScreen cAMP; membranes) EC50,human GLP-1 receptor [1],1.14 nM
same,In vitro potency (CRE-luciferase) low albumin EC50,human GLP-1 receptor [2],0.174 nM
same,IC50,human GLP-1 receptor [3],48.4 nM
HAEGTFTSDVSSYLEGQAAK([Gly-Ser-Ser-Gly-Ser-Ser-γGlu-Decanoyl(10-(4-HOOC-PhO))])EFIAWLVRGRK([Gly-Ser-Ser-Gly-Ser-Ser-γGlu-Decanoyl(10-(4-HOOC-PhO))])E,In vitro potency (AlphaScreen cAMP; membranes) EC50,human GLP-1 receptor [1],0.048 nM
same,In vitro potency (CRE-luciferase) low albumin EC50,human GLP-1 receptor [2],0.008 nM
same,IC50,human GLP-1 receptor [3],0.58 nM
"HAEGTFTSDVSSYLEGQAAK([AEEA-AEEA-γGlu-Decanoyl(10-(4-HOOC-PhO))])EFIAWLVRGRK([AEEA-AEEA-γGlu-Decanoyl(10-(4-HOOC-PhO))])E [Comparative compound of Example 4a: Compound of Example 46, Chem. 65, in WO 2011/080103]",In vitro potency (AlphaScreen cAMP; membranes) EC50,human GLP-1 receptor [1],0.101 nM
same,In vitro potency (CRE-luciferase) low albumin EC50,human GLP-1 receptor [2],0.04 nM
same,IC50,human GLP-1 receptor [3],2.77 nM
H[Aib]EGTFTSDVSK([Gly-Ser-Ser-Gly-Ser-Ser-γGlu-Dodecanoyl(12-OPh(4-COOH))])YLEGQAAK([Gly-Ser-Ser-Gly-Ser-Ser-γGlu-Dodecanoyl(12-OPh(4-COOH))])EFIAWLVQGRG,In vitro potency (AlphaScreen cAMP; membranes) EC50,human GLP-1 receptor [1],0.314 nM
same,In vitro potency (CRE-luciferase) low albumin EC50,human GLP-1 receptor [2],0.0096 nM
same,IC50,human GLP-1 receptor [3],0.84 nM
B1,In vitro potency (AlphaScreen cAMP; membranes) EC50,human GLP-1 receptor [1],0.446 nM
same,In vitro potency (CRE-luciferase) low albumin EC50,human GLP-1 receptor [2],0.0058 nM
same,IC50,human GLP-1 receptor [3],0.53 nM
H[Aib]EGTFTSDVSK([Ser-Ser-Ser-Ser-Ser-Ser-γGlu-Undecanoyl(11-OPh(4-COOH))])YLEGQAAK([Ser-Ser-Ser-Ser-Ser-Ser-γGlu-Undecanoyl(11-OPh(4-COOH))])EFIAWLVQGRG,In vitro potency (AlphaScreen cAMP; membranes) EC50,human GLP-1 receptor [1],0.146 nM
same,In vitro potency (CRE-luciferase) low albumin EC50,human GLP-1 receptor [2],0.0083 nM
same,IC50,human GLP-1 receptor [3],0.54 nM
"H[Aib]EGTFTSDVSK([AEEA-AEEA-γGlu-Decanoyl(10-(4-HOOC-PhO))])YLEEQAAK([AEEA-AEEA-γGlu-Decanoyl(10-(4-HOOC-PhO))])EFIAWLVQGRG [Comparative compound of Example 7a: Compound of Example 2, Chem. 21, in WO 2012/062803]",In vitro potency (AlphaScreen cAMP; membranes) EC50,human GLP-1 receptor [1],0.395 nM
same,In vitro potency (CRE-luciferase) low albumin EC50,human GLP-1 receptor [2],0.017 nM
same,IC50,human GLP-1 receptor [3],7.03 nM
B2,In vitro potency (AlphaScreen cAMP; membranes) EC50,human GLP-1 receptor [1],0.166 nM
same,In vitro potency (CRE-luciferase) low albumin EC50,human GLP-1 receptor [2],0.0052 nM
same,IC50,human GLP-1 receptor [3],0.19 nM
B3,In vitro potency (AlphaScreen cAMP; membranes) EC50,human GLP-1 receptor [1],0.238 nM
same,In vitro potency (CRE-luciferase) low albumin EC50,human GLP-1 receptor [2],0.005 nM
same,IC50,human GLP-1 receptor [3],0.27 nM
B4,In vitro potency (AlphaScreen cAMP; membranes) EC50,human GLP-1 receptor [1],0.116 nM
same,In vitro potency (CRE-luciferase) low albumin EC50,human GLP-1 receptor [2],0.023 nM
same,IC50,human GLP-1 receptor [3],8.99 nM
B5,In vitro potency (AlphaScreen cAMP; membranes) EC50,human GLP-1 receptor [1],0.027 nM
same,In vitro potency (CRE-luciferase) low albumin EC50,human GLP-1 receptor [2],0.0028 nM
same,IC50,human GLP-1 receptor [3],0.17 nM
B6,In vitro potency (AlphaScreen cAMP; membranes) EC50,human GLP-1 receptor [1],0.145 nM
same,In vitro potency (CRE-luciferase) low albumin EC50,human GLP-1 receptor [2],0.0098 nM
same,IC50,human GLP-1 receptor [3],4.61 nM
H[Aib]EGTFTSDVSK([εLys-Ser-Ser-Ser-Ser-Ser-Ser-γGlu-Undecanoyl(11-OPh(4-COOH))])YLEGQAAK([εLys-Ser-Ser-Ser-Ser-Ser-Ser-γGlu-Undecanoyl(11-OPh(4-COOH))])EFIAWLVQGRG,In vitro potency (AlphaScreen cAMP; membranes) EC50,human GLP-1 receptor [1],0.181 nM
same,In vitro potency (CRE-luciferase) low albumin EC50,human GLP-1 receptor [2],0.011 nM
same,IC50,human GLP-1 receptor [3],0.42 nM
H[Aib]EGTFTSDVSK([Gly-Ser-Ser-Gly-Ser-Ser-Gly-Ser-Ser-Gly-Ser-Ser-γGlu-Undecanoyl(11-OPh(4-COOH))])YLEGQAAK([Gly-Ser-Ser-Gly-Ser-Ser-Gly-Ser-Ser-Gly-Ser-Ser-γGlu-Undecanoyl(11-OPh(4-COOH))])EFIAWLVQGRG,In vitro potency (AlphaScreen cAMP; membranes) EC50,human GLP-1 receptor [1],0.171 nM
same,In vitro potency (CRE-luciferase) low albumin EC50,human GLP-1 receptor [2],0.029 nM
same,IC50,human GLP-1 receptor [3],1.34 nM
H[Aib]EGTFTSDVSK([Ala-Ser-Ser-Ala-Ser-Ser-γGlu-Undecanoyl(11-OPh(4-COOH))])YLEGQAAK([Ala-Ser-Ser-Ala-Ser-Ser-γGlu-Undecanoyl(11-OPh(4-COOH))])EFIAWLVQGRG,In vitro potency (AlphaScreen cAMP; membranes) EC50,human GLP-1 receptor [1],0.183 nM
same,In vitro potency (CRE-luciferase) low albumin EC50,human GLP-1 receptor [2],0.015 nM
same,IC50,human GLP-1 receptor [3],0.5 nM
HAEGTFTSDVSK([Gly-Ser-Ser-Gly-Ser-Ser-γGlu-Decanoyl(10-(4-HOOC-PhO))])YLEEQAAK([Gly-Ser-Ser-Gly-Ser-Ser-γGlu-Decanoyl(10-(4-HOOC-PhO))])EFIAWLVQGRG,In vitro potency (AlphaScreen cAMP; membranes) EC50,human GLP-1 receptor [1],0.095 nM
same,In vitro potency (CRE-luciferase) low albumin EC50,human GLP-1 receptor [2],0.0053 nM
same,IC50,human GLP-1 receptor [3],1.63 nM
H[Aib]EGTFTSDVSK([εLys-Gly-Ser-Ser-Gly-Ser-Ser-Gly-Ser-Ser-Gly-Ser-Ser-Gly-Ser-Ser-Gly-Ser-Ser-γGlu-Undecanoyl(11-OPh(4-COOH))])YLEGQAAK([εLys-Gly-Ser-Ser-Gly-Ser-Ser-Gly-Ser-Ser-Gly-Ser-Ser-Gly-Ser-Ser-Gly-Ser-Ser-γGlu-Undecanoyl(11-OPh(4-COOH))])EFIAWLVQGRG,In vitro potency (AlphaScreen cAMP; membranes) EC50,human GLP-1 receptor [1],0.486 nM
same,In vitro potency (CRE-luciferase) low albumin EC50,human GLP-1 receptor [2],0.047 nM
same,IC50,human GLP-1 receptor [3],4.87 nM
